Several values for one entry are separate records, joined by “and”; a condition that tells them apart may be missing. Identical values can stand only once.
How the values were obtained:
[1] = biological target: the molecule itself; assay: atomic force microscopy; octamers to filaments; 5 nM septin-GFP incubated overnight on 2.5% mol PI(4,5)P2 supported lipid bilayers; imaged at room temperature in 20 mM Tris-HCl pH 8, 2 mM MgCl2, 150 mM NaCl
[2] = biological target: the molecule itself; assay: negative-stain transmission electron microscopy; octamers to filaments; 100 nM (legend; methods: 0.005 mg/ml) GFP-tagged septin hetero-octamers on lipid monolayers of 77.5% Egg-PC, 20% Liver-PI, 2.5% Brain-PI(4,5)P2; 20 mM Tris-HCl pH 8, 2 mM MgCl2, 400 µM GTP, 150 mM NaCl; overnight at 4 °C; 2% uranyl acetate

Protein | stoichiometry N [1] | stoichiometry N [2]
wild-type septin-GFP hetero-octamer (Cdc11-Cdc12-Cdc3-Cdc10-Cdc10-Cdc3-Cdc12-Cdc11) (complex, S. cerevisiae, Cdc11, septin of S. cerevisiae; Cdc12, septin of S. cerevisiae; Cdc3, septin of S. cerevisiae; Cdc10, septin of S. cerevisiae; Tag ends are read from the printed construct names MBP-Cdc12/(6xHis)Cdc3-GFP; The purified complex is named without MBP; also called GFP-tagged septin octamers; wild-type septin-GFP complexes; source: E. coli BL21 (DE3) Rosetta, co-expressed from two plasmids, purified …) chain 1: MSGIIDASSALRKRKHLKRGITFTVMIVGQSGSGRSTFINTLCGQQVVDTSTTILLPTDTSTEIDLQLREETVELEDDEGVKIQLNIIDTPGFGDSLDNSPSFEIISDYIRHQYDEILLEESRVRRNPRFKDGRVHCCLYLINPTGHGLKEIDVEFIRQLGSLVNIIPVISKSDSLTRDELKLNKKLIMEDIDRWNLPIYNFPFDEDEISDEDYETNMYLRTLLPFAIIGSNEVYEMGGDVGTIRGRKYPWGILDVEDSSISDFVILRNALLISHLHDLKNYTHEILYERYRTEALSGESVAAESIRPNLTKLNGSSSSSTTTRRNTNPFKQSNNINNDVLNPASDMHGQSTGENNETYMTREEQIRLEEERLKAFEERVQQELLLKRQELLQREKELREIEARLEKEAKIKQEE chain 2: MSAATATAAPVPPPVGISNLPNQRYKIVNEEGGTFTVMLCGESGLGKTTFINTLFQTVLKRADGQQHRQEPIRKTVEIDITRALLEEKHFELRVNVIDTPGFGDNVNNNKAWQPLVDFIDDQHDSYMRQEQQPYRTKKFDLRVHAVLYFIRPTGHGLKPIDIETMKRLSTRANLIPVIAKADTLTAQELQQFKSRIRQVIEAQEIRIFTPPLDADSKEDAKSGSNPDSAAVEHARQLIEAMPFAIVGSEKKFDNGQGTQVVARKYPWGLVEIENDSHCDFRKLRALLLRTYLLDLISTTQEMHYETYRRLRLEGHENTGEGNEDFTLPAIAPARKLSHNPRYKEEENALKKYFTDQVKAEEQRFRQWEQNIVNERIRLNGDLEEIQGKVKKLEEQVKSLQVKKSHLK chain 3: MSLKEEQVSIKQDPEQEERQHDQFNDVQIKQESQDHDGVDSQYTNGTQNDDSERFEAAESDVKVEPGLGMGITSSQSEKGQVLPDQPEIKFIRRQINGYVGFANLPKQWHRRSIKNGFSFNLLCVGPDGIGKTTLMKTLFNNDDIEANLVKDYEEELANDQEEEEGQGEGHENQSQEQRHKVKIKSYESVIEENGVKLNLNVIDTEGFGDFLNNDQKSWDPIIKEIDSRFDQYLDAENKINRHSINDKRIHACLYFIEPTGHYLKPLDLKFMQSVYEKCNLIPVIAKSDILTDEEILSFKKTIMNQLIQSNIELFKPPIYSNDDAENSHLSERLFSSLPYAVIGSNDIVENYSGNQVRGRSYPWGVIEVDNDNHSDFNLLKNLLIKQFMEELKERTSKILYENYRSSKLAKLGIKQDNSVFKEFDPISKQQEEKTLHEAKLAKLEIEMKTVFQQKVSEKEKKLQKSETELFARHKEMKEKLTKQLKALEDKKKQLELSINSASPNVNHSPVPTKKKGFLR chain 4: MDPLSSVQPASYVGFDTITNQIEHRLLKKGFQFNIMVVGQSGLGKSTLINTLFASHLIDSATGDDISALPVTKTTEMKISTHTLVEDRVRLNINVIDTPGFGDFIDNSKAWEPIVKYIKEQHSQYLRKELTAQRERFITDTRVHAILYFLQPNGKELSRLDVEALKRLTEIANVIPVIGKSDTLTLDERTEFRELIQNEFEKYNFKIYPYDSEELTDEELELNRSVRSIIPFAVVGSENEIEINGETFRGRKTRWSAINVEDINQCDFVYLREFLIRTHLQDLIETTSYIHYEGFRARQLIALKENANSRSSAHMSSNAIQR | 5 octamers | 2 octamers and 3 octamers
septin-GFP hetero-octamer containing ΔAH-Cdc12 (C-terminal deletion of Cdc12 residues 390-407) (complex, S. cerevisiae, Cdc11, septin of S. cerevisiae; Cdc12, septin of S. cerevisiae; Cdc3, septin of S. cerevisiae; Cdc10, septin of S. cerevisiae; also called ΔAH-Cdc12 mutant; ΔAH mutant; source: E. coli BL21 (DE3) Rosetta, co-expressed, purified (amylose resin, Ni-NTA-agarose), same protocol as wild type; not shown: GFP, C-terminal, kept; copies: 2 + 2 + 2 + 2) chain 1: MSGIIDASSALRKRKHLKRGITFTVMIVGQSGSGRSTFINTLCGQQVVDTSTTILLPTDTSTEIDLQLREETVELEDDEGVKIQLNIIDTPGFGDSLDNSPSFEIISDYIRHQYDEILLEESRVRRNPRFKDGRVHCCLYLINPTGHGLKEIDVEFIRQLGSLVNIIPVISKSDSLTRDELKLNKKLIMEDIDRWNLPIYNFPFDEDEISDEDYETNMYLRTLLPFAIIGSNEVYEMGGDVGTIRGRKYPWGILDVEDSSISDFVILRNALLISHLHDLKNYTHEILYERYRTEALSGESVAAESIRPNLTKLNGSSSSSTTTRRNTNPFKQSNNINNDVLNPASDMHGQSTGENNETYMTREEQIRLEEERLKAFEERVQQELLLKRQELLQREKELREIEARLEKEAKIKQEE chain 2: MSAATATAAPVPPPVGISNLPNQRYKIVNEEGGTFTVMLCGESGLGKTTFINTLFQTVLKRADGQQHRQEPIRKTVEIDITRALLEEKHFELRVNVIDTPGFGDNVNNNKAWQPLVDFIDDQHDSYMRQEQQPYRTKKFDLRVHAVLYFIRPTGHGLKPIDIETMKRLSTRANLIPVIAKADTLTAQELQQFKSRIRQVIEAQEIRIFTPPLDADSKEDAKSGSNPDSAAVEHARQLIEAMPFAIVGSEKKFDNGQGTQVVARKYPWGLVEIENDSHCDFRKLRALLLRTYLLDLISTTQEMHYETYRRLRLEGHENTGEGNEDFTLPAIAPARKLSHNPRYKEEENALKKYFTDQVKAEEQRFRQWEQNIVNERIRLNGDLEEIQGKV chain 3: MSLKEEQVSIKQDPEQEERQHDQFNDVQIKQESQDHDGVDSQYTNGTQNDDSERFEAAESDVKVEPGLGMGITSSQSEKGQVLPDQPEIKFIRRQINGYVGFANLPKQWHRRSIKNGFSFNLLCVGPDGIGKTTLMKTLFNNDDIEANLVKDYEEELANDQEEEEGQGEGHENQSQEQRHKVKIKSYESVIEENGVKLNLNVIDTEGFGDFLNNDQKSWDPIIKEIDSRFDQYLDAENKINRHSINDKRIHACLYFIEPTGHYLKPLDLKFMQSVYEKCNLIPVIAKSDILTDEEILSFKKTIMNQLIQSNIELFKPPIYSNDDAENSHLSERLFSSLPYAVIGSNDIVENYSGNQVRGRSYPWGVIEVDNDNHSDFNLLKNLLIKQFMEELKERTSKILYENYRSSKLAKLGIKQDNSVFKEFDPISKQQEEKTLHEAKLAKLEIEMKTVFQQKVSEKEKKLQKSETELFARHKEMKEKLTKQLKALEDKKKQLELSINSASPNVNHSPVPTKKKGFLR chain 4: MDPLSSVQPASYVGFDTITNQIEHRLLKKGFQFNIMVVGQSGLGKSTLINTLFASHLIDSATGDDISALPVTKTTEMKISTHTLVEDRVRLNINVIDTPGFGDFIDNSKAWEPIVKYIKEQHSQYLRKELTAQRERFITDTRVHAILYFLQPNGKELSRLDVEALKRLTEIANVIPVIGKSDTLTLDERTEFRELIQNEFEKYNFKIYPYDSEELTDEELELNRSVRSIIPFAVVGSENEIEINGETFRGRKTRWSAINVEDINQCDFVYLREFLIRTHLQDLIETTSYIHYEGFRARQLIALKENANSRSSAHMSSNAIQR | – | ~4 octamers
septin-GFP hetero-octamer containing ΔCTE-Cdc12 (deletion of the C-terminal extension of Cdc12, residues 339-407) (complex, S. cerevisiae, Cdc11, septin of S. cerevisiae; Cdc12, septin of S. cerevisiae; Cdc3, septin of S. cerevisiae; Cdc10, septin of S. cerevisiae; also called ΔCTE-Cdc12 mutant; Cdc12 mutants; source: E. coli BL21 (DE3) Rosetta, co-expressed, purified (amylose resin, Ni-NTA-agarose), same protocol as wild type; not shown: GFP, C-terminal, kept; copies: 2 + 2 + 2 + 2) chain 1: MSGIIDASSALRKRKHLKRGITFTVMIVGQSGSGRSTFINTLCGQQVVDTSTTILLPTDTSTEIDLQLREETVELEDDEGVKIQLNIIDTPGFGDSLDNSPSFEIISDYIRHQYDEILLEESRVRRNPRFKDGRVHCCLYLINPTGHGLKEIDVEFIRQLGSLVNIIPVISKSDSLTRDELKLNKKLIMEDIDRWNLPIYNFPFDEDEISDEDYETNMYLRTLLPFAIIGSNEVYEMGGDVGTIRGRKYPWGILDVEDSSISDFVILRNALLISHLHDLKNYTHEILYERYRTEALSGESVAAESIRPNLTKLNGSSSSSTTTRRNTNPFKQSNNINNDVLNPASDMHGQSTGENNETYMTREEQIRLEEERLKAFEERVQQELLLKRQELLQREKELREIEARLEKEAKIKQEE chain 2: MSAATATAAPVPPPVGISNLPNQRYKIVNEEGGTFTVMLCGESGLGKTTFINTLFQTVLKRADGQQHRQEPIRKTVEIDITRALLEEKHFELRVNVIDTPGFGDNVNNNKAWQPLVDFIDDQHDSYMRQEQQPYRTKKFDLRVHAVLYFIRPTGHGLKPIDIETMKRLSTRANLIPVIAKADTLTAQELQQFKSRIRQVIEAQEIRIFTPPLDADSKEDAKSGSNPDSAAVEHARQLIEAMPFAIVGSEKKFDNGQGTQVVARKYPWGLVEIENDSHCDFRKLRALLLRTYLLDLISTTQEMHYETYRRLRLEGHENTGEGNEDFTLPAIAPARKLSH chain 3: MSLKEEQVSIKQDPEQEERQHDQFNDVQIKQESQDHDGVDSQYTNGTQNDDSERFEAAESDVKVEPGLGMGITSSQSEKGQVLPDQPEIKFIRRQINGYVGFANLPKQWHRRSIKNGFSFNLLCVGPDGIGKTTLMKTLFNNDDIEANLVKDYEEELANDQEEEEGQGEGHENQSQEQRHKVKIKSYESVIEENGVKLNLNVIDTEGFGDFLNNDQKSWDPIIKEIDSRFDQYLDAENKINRHSINDKRIHACLYFIEPTGHYLKPLDLKFMQSVYEKCNLIPVIAKSDILTDEEILSFKKTIMNQLIQSNIELFKPPIYSNDDAENSHLSERLFSSLPYAVIGSNDIVENYSGNQVRGRSYPWGVIEVDNDNHSDFNLLKNLLIKQFMEELKERTSKILYENYRSSKLAKLGIKQDNSVFKEFDPISKQQEEKTLHEAKLAKLEIEMKTVFQQKVSEKEKKLQKSETELFARHKEMKEKLTKQLKALEDKKKQLELSINSASPNVNHSPVPTKKKGFLR chain 4: MDPLSSVQPASYVGFDTITNQIEHRLLKKGFQFNIMVVGQSGLGKSTLINTLFASHLIDSATGDDISALPVTKTTEMKISTHTLVEDRVRLNINVIDTPGFGDFIDNSKAWEPIVKYIKEQHSQYLRKELTAQRERFITDTRVHAILYFLQPNGKELSRLDVEALKRLTEIANVIPVIGKSDTLTLDERTEFRELIQNEFEKYNFKIYPYDSEELTDEELELNRSVRSIIPFAVVGSENEIEINGETFRGRKTRWSAINVEDINQCDFVYLREFLIRTHLQDLIETTSYIHYEGFRARQLIALKENANSRSSAHMSSNAIQR | – | ~4 octamers

Reference: publication doi:10.1101/2024.03.19.585775, “Septin filament assembly assist the lateral organization of membranes” (bioRxiv, 2024)
